Numbering of substitutions follows the chain as printed. Names and notes keep the numbering of the source.
B1: H240-Kn193/H240-Hl204/L73-k0 (antibody, human IgG1, kappa)
heavy 1: QDQLVQSGAEVKKPGASVKVSCKASGFNIKDTYIQWVRQAPGQGLEWMGRIDPLRKQTKYREKFEGRVTITADTSTNTAYMELSSLRSEDTAVYYCVRSGREFDYWGQGTLVTVSSASTKGPSVFPLAPSSKSTSGGTAALGCLVKDYFPEPVTVSWNSGALTSGVHTFPAVLQSSGLYSLSSVVTVPSSSLGTQTYICNVNHKPSNTKVDKKVEPKSCDKTHTCPPCPAPEYNWGPMVFLFPPKPKDTLMISRTPEVTCVVVDVSDEDPEVKFNWYVDGVEVHNAKTKPRERQYNATYRVVSVLTVLHQDWLNGKEYKCKVSNKDLPAPIEKTISKAKGQPREPQVCTLPPSRDELTKNQVSLWCLVKGFYPSDIAVEWESNGQPENNYKTTPPVLDSDGSFFLYSKLTVDKSRWQQGNVFSCSVMHEALHNHYTQKSLSLSP
heavy 2: QDQLVQSGAEVKKPGASVKVSCKASGFNIKDTYIQWVRQAPGQGLEWMGRIDPLRKQTKYREKFEGRVTITADTSTNTAYMELSSLRSEDTAVYYCVRSGREFDYWGQGTLVTVSSASTKGPSVFPLAPSSKSTSGGTAALGCLVKDYFPEPVTVSWNSGALTSGVHTFPAVLQSSGLYSLSSVVTVPSSSLGTQTYICNVNHKPSNTKVDKKVEPKSCDKTHTCPPCPAPELLTGPSVFLFPPKPKDTLMISRTPEVTCVVVDVSHEEPEVKFNWYVDGVEVHNAKTKPREEQYNSTYRVVSVLTVLHQDWLNGKEYKCKVSNDALPKPEEETISKAKGQPREPQVYTLPPSRCELTKNQVSLSCAVKGFYPSDIAVEWESNGQPENNYKTTPPVLDSDGSFFLVSKLTVDKSRWQQGNVFSCSVMHEALHNHYTQKSLSLSP
light: DIQMTQSPSSLSASVGDRVTITCRASQDIHKYIAWYQQKPGQAPRLLIQYTSTLQPGVPSRFSGSGSGTDYTFTISSLQPEDIATYYCLQYEQLRTFGGGTKVEIKRTVAAPSVFIFPPSDEQLKSGTASVVCLLNNFYPREAKVQWKVDNALQSGNSQESVTEQDSKDSTYSLSSTLTLSKADYEKHKVYACEVTHQGLSSPVTKSFNRGEC
notes: Y235N and E294R in H240-Kn120; G236T and I332E in H240-Hl068; also called H240-Kn193/H240-HI204/L73-k0
B2: H240-Kn201/H240-Hl076/L73-k0 (antibody, human IgG1, kappa)
heavy 1: B1 heavy 1 with Y233F, N234Q, D269E, R293E, D326A
heavy 2: B1 heavy 2 with T235G, K329M, E331I
light: B1 light
B3: H240-Kn202/H240-Hl076/L73-k0 (antibody, human IgG1, kappa)
heavy 1: B1 heavy 1 with Y233E, N234Q, D269E, R293E, D326A
heavy 2: B1 heavy 2 with T235G, K329M, E331I
light: B1 light
B4: H240-Kn208/H240-Hl076/L73-k0 (antibody, human IgG1, kappa)
heavy 1: B1 heavy 1 with Y233D, N234Q, D269E, R293E, D326A
heavy 2: B1 heavy 2 with T235G, K329M, E331I
light: B1 light
B5: H240-Kn184/H240-Hl068/L73-k0 (antibody, human IgG1, kappa)
heavy 1: B1 heavy 1 with Y233E, N234Y, R293E
heavy 2: B1 heavy 2 with T235G, E331I
light: B1 light
B6: H240-Kn217/H240-Hl068/L73-k0 (antibody, human IgG1, kappa)
heavy 1: B1 heavy 1 with Y233D, N234Y, R293E
heavy 2: B1 heavy 2 with T235G, E331I
light: B1 light
B7: H240-Kn221/H240-Hl068/L73-k0 (antibody, human IgG1, kappa)
heavy 1: B1 heavy 1 with Y233T, N234Y, R293E
heavy 2: B1 heavy 2 with T235G, E331I
light: B1 light
B8: H240-Kn199/H240-Hl068/L73-k0 (antibody, human IgG1, kappa)
heavy 1: B1 heavy 1 with Y233L, N234Y, R293E
heavy 2: B1 heavy 2 with T235G, E331I
light: B1 light

target: FcγRIIIa F (human, UniProt P08637 17-208); test: SPR (Biacore), KD
Sequence (P08637 17-208): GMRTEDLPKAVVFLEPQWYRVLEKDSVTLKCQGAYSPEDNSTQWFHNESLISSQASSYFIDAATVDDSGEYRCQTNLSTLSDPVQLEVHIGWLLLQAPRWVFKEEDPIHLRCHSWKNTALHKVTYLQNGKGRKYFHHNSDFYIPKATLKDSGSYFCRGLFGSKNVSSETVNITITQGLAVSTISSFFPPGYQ

Binder	fold binding against the variant before introduction of I332E and Y235N [times]	fold binding activity against H240-Kn033/H240-Hl033/L73-k0 [fold]
B1	2	
B2		≥ 100
B3		≥ 100
B4		≥ 100
B5		≥ 100
B6		≥ 100
B7		≥ 100
B8		≥ 100

target: FcγRIIIa V (human, UniProt P08637 17-208); test: SPR (Biacore), KD
Sequence (P08637 17-208): as above

Binder	fold binding against the variant before introduction of I332E and Y235N [times]	fold binding activity against H240-Kn033/H240-Hl033/L73-k0 [fold]
B1	8	
B2		≥ 100
B3		≥ 100
B4		≥ 100
B5		≥ 100
B6		≥ 100
B7		≥ 100
B8		≥ 100

From patent US20150344570A1 (published 2015)
